The results in this text go back to US20190352359A1 (IMMATICS BIOTECHNOLOGIES, published 2019).

The target in the assay is T1, HLA-A*24.
T1 construct: Monomers captured on streptavidin plates; also called peptide-receptive MHC molecules; MHC complexes
As to the kind of experiment: UV peptide-exchange ELISA (anti-b2m); yield grade ++++ = >75%. An excerpt: Candidate peptides for T cell based therapies according to the present invention were further tested for their MHC binding capacity (affinity). The individual peptide-MHC complexes were produced by UV-ligand exchange, where a UV-sensitive peptide is cleaved upon UV-irradiation, and exchanged with the peptide of interest as analyzed. Only peptide candidates that can effectively bind and stabilize the peptide-receptive MHC molecules prevent dissociation of the MHC complexes. To determine the yield of the exchange reaction, an ELISA was performed based on the detection of the light chain (p2m) of stabilized MHC complexes. The assay was performed as generally described in Rodenko et al. (Rodenko et al., 2006)
96 well MAXISorp plates (NUNC) were coated over night with 2 ug/ml streptavidin in PBS at room temperature, washed 4× and blocked for 1 h at 37° C. in 2% BSA containing blocking buffer. Refolded HLA-A*02:01/MLA-001 monomers served as standards, covering the range of 15-500 ng/ml. Peptide-MHC monomers of the UV-exchange reaction were diluted 100-fold in blocking buffer. Samples were incubated for 1 h at 37° C., washed four times, incubated with 2 ug/ml HRP conjugated anti-β2m for 1h at 37° C., washed again and detected with TMB solution that is stopped with […]. Absorption was measured at 450 nm. Candidate peptides that show a high exchange yield (preferably higher than 50%, most preferred higher than 75%) are generally preferred for a generation and production of antibodies or fragments thereof, and/or T cell receptors or fragments thereof, as they show sufficient avidity to the MHC molecules and prevent dissociation of the MHC complexes.
For TYFFVDNQYW (also called TYFFVDNQYW) [MMP12-020], the peptide exchange yield is greater than 75%.
In turn, LYTVPFNLI (also called LYTVPFNLI) [SLC45A2-006] showed a peptide exchange yield greater than 75%.
As to IFLPFFIVF (also called IFLPFFIVF) [ADAM18-001], the peptide exchange yield is greater than 75%.
In the case of LSSPVHLDF (also called LSSPVHLDF) [FCRL5-007], the peptide exchange yield is greater than 75%.
MYDLHHLYL (also called MYDLHHLYL) [EPY-001] registered a peptide exchange yield greater than 75%.
With QRYGFSSVGF (also called QRYGFSSVGF) [RHBG-001], the peptide exchange yield is greater than 75%.
IYNEHGIQQI (also called IYNEHGIQQI) [COL11A1-003] came in with a peptide exchange yield greater than 75%.
For the molecule LYMSVEDFI (also called LYMSVEDFI) [STK31-001], the peptide exchange yield is greater than 75%.
To TYIDTRTVFL (also called TYIDTRTVFL) [CAPN6-005] belongs greater than 75%.
To FYNRLTKLF (also called FYNRLTKLF) [OFCC-001] belongs greater than 75%; to FYFYNCSSL (also called FYFYNCSSL) [ERV-001], greater than 75%; to MYTIVTPML (also called MYTIVTPML) [OR1N1-001], greater than 75%.
With LYICKVELM (also called LYICKVELM) [CTL-001] the figure was greater than 75%; with RYFIAAEKILW (also called RYFIAAEKILW) [HEPHL-005], greater than 75%.
In the case of VYAFMNENF (also called VYAFMNENF) [QRFPR-004], the peptide exchange yield is greater than 75%.
Take VYSDRQIYLL (also called VYSDRQIYLL) [ABCC11-006]: the peptide exchange yield was greater than 75%.
Take AYPQIRCTW (also called AYPQIRCTW) [FLT3-009]: the peptide exchange yield is greater than 75%.
To VYLDEKQHAW (also called VYLDEKQHAW) [TCL1A-005] belongs greater than 75%.
In turn, AFQNVISSF (also called AFQNVISSF) [NMUR2-003] had a peptide exchange yield greater than 75%.
CYSFIHLSF (also called CYSFIHLSF) [NLR-006] showed a peptide exchange yield greater than 75%.
Molecule KIYTTVLFANI (also called KIYTTVLFANI) [NPFFR2-003] gave a peptide exchange yield greater than 75%.
In the case of RWLSKPSLL (also called RWLSKPSLL) [KBTBD8-004], the peptide exchange yield was greater than 75%.
With AWSPPATLF (also called AWSPPATLF) [LOXL4-002] the figure was greater than 75%; with VYSNPDLFW (also called VYSNPDLFW) [TRDV3-002], greater than 75%; with IYSSQLPSF (also called IYSSQLPSF) [TFEC-004], greater than 75%.
As for AYLQFLSVL (also called AYLQFLSVL) [GREB-002], the peptide exchange yield was greater than 75%.
For ALMSAFYTF (also called ALMSAFYTF) [MMP11-020], the peptide exchange yield was greater than 75%.
Take QYLQQQAKL (also called QYLQQQAKL) [FOXB1-002]: the peptide exchange yield is greater than 75%.
On to YYIATMALI (also called YYIATMALI) [CHRNA9-004], for which the peptide exchange yield is greater than 75%.
In turn, PYWWNANMVF (also called PYWWNANMVF) [NOTU-001] showed a peptide exchange yield greater than 75%.
For the molecule LYPDSVFGRLF (also called LYPDSVFGRLF) [SMC1B-003], the peptide exchange yield is greater than 75%.
To TYATHVTEI (also called TYATHVTEI) [CCR8-004] belongs greater than 75%; to IYPEAIATL (also called IYPEAIATL) [SLC6A3-002], greater than 75%.
The molecule TQAGEYLLF (also called TQAGEYLLF) [FLT3-012] had a peptide exchange yield greater than 75%.
The molecule FFYVTETTF (also called FFYVTETTF) [TERT-003] gave a peptide exchange yield greater than 75%.
To SYTPLLSYI (also called SYTPLLSYI) [C1orf94-002] belongs greater than 75%.
LYYGSILYI (also called LYYGSILYI) [OR9-001] gave a peptide exchange yield greater than 75%.
IWPGFTTSI (also called IWPGFTTSI) [PIWIL1-003] yielded a peptide exchange yield greater than 75%.
In the case of ISWEVVHTVF (also called ISWEVVHTVF) [HMCN1-008], the peptide exchange yield was greater than 75%.
Consider KYLITTFSL (also called KYLITTFSL) [NLRP2-008], for which the peptide exchange yield was greater than 75%.
In turn, MLPEASLLI (also called MLPEASLLI) [NLRP4-005] gave a peptide exchange yield greater than 75%.
Molecule IFIPATILL (also called IFIPATILL) [ACSM1-001] yielded a peptide exchange yield greater than 75%.
YYIGIVEEYW (also called YYIGIVEEYW) [HEPHL-008] registered a peptide exchange yield greater than 75%.
VFPSVDVSF (also called VFPSVDVSF) [PTP-043] displayed a peptide exchange yield greater than 75%.
Molecule QKYYITGEAEGF (also called QKYYITGEAEGF) [ESR1-009] showed a peptide exchange yield greater than 75%.
VLPLHFLPF (also called VLPLHFLPF) [HBG2-001] displayed a peptide exchange yield greater than 75%.
With DYLLSWLLF (also called DYLLSWLLF) [CNR2-003] the figure was greater than 75%.
TYSTNRTMI (also called TYSTNRTMI) [FLT3-013] yielded a peptide exchange yield greater than 75%.
IYNKTKMAF (also called IYNKTKMAF) [SLCO6-001] came in with a peptide exchange yield greater than 75%.
In turn, VYISDVSVY (also called VYISDVSVY) [CLECL-003] returned a peptide exchange yield greater than 75%.
RYLSVCERL (also called RYLSVCERL) [NKX-001] displayed a peptide exchange yield greater than 75%.
To FFLQESPVF (also called FFLQESPVF) [ABCC11-004] belongs greater than 75%; to AYAPRGSIYKF (also called AYAPRGSIYKF) [HHIPL2-001], greater than 75%.
IYTFSNVTF (also called IYTFSNVTF) [BTN1-003] came in with a peptide exchange yield greater than 75%.
The molecule IFPKTGLLII (also called IFPKTGLLII) [MAGEA4-008] registered a peptide exchange yield greater than 75%.
In the case of KYVDINTFRL (also called KYVDINTFRL) [MMP12-018], the peptide exchange yield is greater than 75%.
IYVSLAHVL (also called IYVSLAHVL) [ANO7-002] gave a peptide exchange yield greater than 75%.
With PYSIYPHGVTF (also called PYSIYPHGVTF) [F5-006] the figure was greater than 75%; with IYKFIMDRF (also called IYKFIMDRF) [FOXB1-001], greater than 75%; with LYAPTILLW (also called LYAPTILLW) [AFP-001], greater than 75%.
As for HYHAESFLF (also called HYHAESFLF) [HEPHL-003], the peptide exchange yield was greater than 75%.
